T1: Recombinant SDHB (Mus musculus, UniProt Q9CQA3)
T1 construct: purchased LSBio LS-G26026
T1 sequence (Q9CQA3 31-282): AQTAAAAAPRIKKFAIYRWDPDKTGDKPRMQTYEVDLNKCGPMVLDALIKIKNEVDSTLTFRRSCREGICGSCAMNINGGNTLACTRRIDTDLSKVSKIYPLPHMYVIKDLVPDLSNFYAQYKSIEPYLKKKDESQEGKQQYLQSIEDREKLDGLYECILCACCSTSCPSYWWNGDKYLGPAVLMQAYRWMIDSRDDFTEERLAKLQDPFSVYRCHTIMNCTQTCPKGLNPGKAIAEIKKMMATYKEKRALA


Legend:
[1] = system: primary colonic epithelial cells (PCECs); assay: Apoptosis of pre-treated PCECs induced by perforin and Granzyme B; assay type: cell-based, C57BL/6 mice; conditions: pre-treated 2 hours, then perforin and Granzyme B 4 hours
Experimental: Cell culture: C57BL/6 primary colonic epithelial cells (PCEC, C57-6047, Cell Biologics, Chicago, IL) were cultured in compete epithelial growth medium supplemented with insulin-transferrin-selenium, epidermal growth factor, glutamine, antibiotics, antimycotics and fecal bovine serum (#M6621, Cell Biologics). Cells were routinely tested for mycoplasma contamination using MycoAlert (#LT07-318, Lonza, Switzerland). Cells were treated with Mouse active perforin (#APB317Mu01, Cloud-Clone Corp., Katy, TX) and recombinant mouse Granzyme B (#140-03, PeproTech, Rocky Hill, NJ) for 4 to 6 hours in indicated concentrations following manufacturer's recommendations. Cells were incubated with GDF-15 (#8944-GD-025, 500 pg/mL, R&D Systems, Minneapolis, MN), Tiron (#172553, 10 mM, Sigma-Aldrich, St. Louis, MO), Trolox (#648471, 0.5 mM, Sigma-Aldrich), 4-Octyl itaconate (#SML2338, 0.1 mM, Sigma-Aldrich) and NAD (#N8285, 1 mM, Sigma-Aldrich).

mutated SDHA protein = molecular target: T2, mutated SDHA protein (Mus musculus, UniProt Q8K2B3, D241A); assay: GzmB treatment of SDHA mutated at the putative cleavage site; assay type: biochemical; conditions: 6 hours
T2 construct: host or cells: E. coli BL21 Star (DE3)
T2 sequence (Q8K2B3 43-664 D241A): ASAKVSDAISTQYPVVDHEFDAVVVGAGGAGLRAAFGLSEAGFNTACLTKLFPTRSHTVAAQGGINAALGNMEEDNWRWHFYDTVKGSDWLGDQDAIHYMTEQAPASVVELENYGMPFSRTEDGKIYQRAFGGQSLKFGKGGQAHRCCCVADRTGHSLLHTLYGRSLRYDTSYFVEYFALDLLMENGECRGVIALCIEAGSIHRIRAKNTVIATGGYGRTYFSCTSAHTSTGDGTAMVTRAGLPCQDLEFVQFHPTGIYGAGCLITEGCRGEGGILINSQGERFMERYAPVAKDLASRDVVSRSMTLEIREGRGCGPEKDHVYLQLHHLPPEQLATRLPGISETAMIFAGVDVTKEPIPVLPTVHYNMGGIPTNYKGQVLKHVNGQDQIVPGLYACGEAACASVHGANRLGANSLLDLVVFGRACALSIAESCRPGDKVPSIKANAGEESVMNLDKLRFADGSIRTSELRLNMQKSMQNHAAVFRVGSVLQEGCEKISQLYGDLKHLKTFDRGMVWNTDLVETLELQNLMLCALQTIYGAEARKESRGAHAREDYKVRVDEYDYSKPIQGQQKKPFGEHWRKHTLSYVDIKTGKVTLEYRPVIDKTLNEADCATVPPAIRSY
Experimental: Generation of normal SDHA protein and mutated SDHA protein: Target DNA sequence of mouse normal SDHA and mutated SDHA was optimized and synthesized (GenScript). The synthesized sequence was cloned into vector pET-30a(+) with His tag for protein expression in E. coli. E. coli strain BL21 Star™(DE3) was transformed with recombinant plasmid. A single colony was inoculated into LB medium containing related antibiotic; culture was incubated in 37° C. at 200 rpm and then induced with IPTG. SDS-PAGE was used to monitor the expression. Recombinant BL21 Star™ (DE3) stored in glycerol was inoculated into TB medium containing related antibiotic and cultured at 37° C. When the OD600 reached about 1.2, cell culture was induced with IPTG at 15° C./16 h. Cells were harvested by centrifugation. Cell pellets were resuspended with lysis buffer followed by sonication. The precipitate after centrifugation was dissolved using denaturing agent. Target protein was obtained by one-step purification using Ni column. Target protein was sterilized by 0.22 μm filter before stored in aliquots. The concentration was determined by Bradford protein assay with BSA as standard. The protein purity and molecular weight were determined by standard SDS-PAGE along with Western blot confirmation. […]

SDHA [2] = molecular target: T3, SDHA (Mus musculus, UniProt Q8K2B3); assay: SDHA cleavage assay, isolated mitochondria from IECs; assay type: biochemical; set-up: 75 ug Isolated mitochondria in 25 ul EDB buffer; from tissue; host or cells: mitochondria isolated from mouse intestinal epithelial cells; conditions: ex vivo
T3 sequence (Q8K2B3 43-664): as the sequence (Q8K2B3 43-664 D241A) above, with A199D counted along it
Experimental: (§1) SDHA cleavage assay: 75 ug Isolated mitochondria in 25 ul EDB buffer (10 mM HEPES, 50 mM NaCl, 2 mM MgCl2, 5 mM EGTA and 1 mM DTT) were incubated with 75 ng mouse Granzyme B at 37 degrees and then separated by SDS-PAGE^70. Mouse recombinant SDHA protein with His Tag (LS-G26030, LSBio, Seattle, WA) and mouse recombinant SDHB protein with His Tag (LS-G26026, LSBio) in EDB buffer (25 ug in 8.3 ul) were incubated with 25 ng mouse Granzyme B at 37 degrees for 90 minutes. Proteins were then separated by SDS-PAGE and blotted with anti-His Tag antibody (LS-C60077, 1:1000, LSBio) and anti-SDHA (#ab139181, 1:1000, Abcam).

Recombinant SDHB = molecular target: T1, Recombinant SDHB; assay: SDHA cleavage assay, cell free, recombinant SDHB control; assay type: biochemical; conditions: 90 minutes
Experimental: as §1

SDHA [3] = molecular target: T3, SDHA; assay: SDHA cleavage assay, cell free, recombinant SDHA; assay type: biochemical; set-up: purchased LSBio LS-G26030; conditions: 90 minutes
Experimental: as §1

Molecule | apoptosis of PCECs induced by GranzymeB and perforin [1] | proteolysis of mutated SDHA (Ile-Glu-Asp-Gly to Ile-Glu-Ala-Gly) (mutated SDHA protein) | proteolysis of SDHA in isolated mitochondria (SDHA [2]) | proteolysis of recombinant SDHB (Recombinant SDHB) | proteolysis of recombinant SDHA (SDHA [3])
GDF15: growth and differentiation factor15 that promotes the tissue tolerance (protein, UniProt Q99988 195-308, looked up) Growth/differentiation factor …: ARARNGDHCPLGPGRCCRLHTVRASLEDLGWADWVLSPREVQVTMCIGACPSQFRAANMHAQIKTSLHRLKPDTVPAPCCVPASYNPMVLIQKTDTGVSLQTYDDLLAKDCHCI | did not reduce apoptosis |  |  |  | 
GzmB: recombinant mouse Granzyme B (protein) IIGGHEVKPHSRPYMALLSIKDQQPEAICGGFLIREDFVLTAAHCEGSIINVTLGAHNIKEQEKTQQVIPMVKCIPHPDYNPKTFSNDIMLLKLKSKAKRTRAVRPLNLPRRNVNVKPGDVCYVAGWGRMAPMGKYSNTLQEVELTVQKDRECESYFKNRYNKTNQICAGDPKTKRASFRGDSGGPLVCKKVAAGIVSYGYKDGSPPRAFTKVSSFLSWIKKTMKSS |  | prevented proteolysis | caused proteolysis of SDHA | not SDHB | direct proteolysis

From US20240082183A1, “METHODS FOR PREVENTING OR TREATING CONDITIONS RELATED TO T CELL MEDIATED INTESTINAL DISORDERS” (The Regents of the University of Michigan, priority 2021, published 2024)
